# Experimental data as given in patent US20190367631A1 (Regeneron, published 2019).
# T1: full length human MSR1 with a C-terminal Myc tag, on HEK293.Myc.hMSR1 cells (human, UniProt P21757 1-451)
# T1 sequence (looked up): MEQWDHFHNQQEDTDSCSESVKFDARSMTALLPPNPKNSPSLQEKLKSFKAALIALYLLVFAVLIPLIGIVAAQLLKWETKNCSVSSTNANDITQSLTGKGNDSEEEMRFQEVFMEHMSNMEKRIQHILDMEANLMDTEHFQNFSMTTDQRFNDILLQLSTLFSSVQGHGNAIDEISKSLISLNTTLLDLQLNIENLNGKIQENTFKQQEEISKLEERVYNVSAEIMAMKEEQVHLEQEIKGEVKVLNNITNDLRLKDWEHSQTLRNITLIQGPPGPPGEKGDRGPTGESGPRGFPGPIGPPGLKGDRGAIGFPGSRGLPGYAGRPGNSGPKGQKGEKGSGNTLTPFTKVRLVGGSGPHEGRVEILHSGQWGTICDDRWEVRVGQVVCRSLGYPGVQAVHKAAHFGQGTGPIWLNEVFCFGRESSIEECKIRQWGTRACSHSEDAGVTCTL
# T2: mouse MSR1 on RAW264.7 cells (mouse, UniProt P30204 1-458)
# T2 construct: whole, on cells; also called MSR1 positive RAW264.7 cells
# T2 sequence (looked up): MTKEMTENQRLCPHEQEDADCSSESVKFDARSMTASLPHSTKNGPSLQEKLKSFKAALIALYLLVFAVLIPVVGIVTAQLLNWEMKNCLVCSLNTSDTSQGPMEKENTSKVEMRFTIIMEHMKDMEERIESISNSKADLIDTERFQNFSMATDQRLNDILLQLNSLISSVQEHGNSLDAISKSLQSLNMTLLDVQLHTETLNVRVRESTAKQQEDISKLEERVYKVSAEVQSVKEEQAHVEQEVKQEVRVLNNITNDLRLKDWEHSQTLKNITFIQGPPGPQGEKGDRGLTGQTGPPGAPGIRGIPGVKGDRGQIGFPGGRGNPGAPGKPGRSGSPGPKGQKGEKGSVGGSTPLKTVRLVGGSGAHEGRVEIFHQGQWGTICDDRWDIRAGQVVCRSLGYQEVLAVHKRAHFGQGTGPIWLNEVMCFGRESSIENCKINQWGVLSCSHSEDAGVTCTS
# T3: human MSR1 extracellular domain expressed with a N-terminal nonahistidine tag (His9-hMSR1); R&D Systems, Cat … (human, UniProt P21757 77-451)
# T3 construct: extracellular domain; Bought reagent; also called His-hMSR1; 9xHis-hMSR1
# T3 sequence: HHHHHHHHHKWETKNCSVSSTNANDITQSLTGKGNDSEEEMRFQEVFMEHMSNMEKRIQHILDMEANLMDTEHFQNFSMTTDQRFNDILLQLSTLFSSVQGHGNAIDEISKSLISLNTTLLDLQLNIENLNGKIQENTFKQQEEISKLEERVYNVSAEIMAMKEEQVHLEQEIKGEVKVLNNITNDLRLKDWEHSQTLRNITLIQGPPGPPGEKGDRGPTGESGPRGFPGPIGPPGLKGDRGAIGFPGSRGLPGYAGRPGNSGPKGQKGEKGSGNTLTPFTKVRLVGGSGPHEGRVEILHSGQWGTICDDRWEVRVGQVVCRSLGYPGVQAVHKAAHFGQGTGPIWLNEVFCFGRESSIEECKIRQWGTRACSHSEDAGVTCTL
# T4: human MSR1 extracellular domain expressed with a N-terminal nonahistidine tag (human, UniProt P21757 77-451)
# T4 construct: extracellular domain; also called His9-hMSR1; His-hMSR1
# T4 sequence: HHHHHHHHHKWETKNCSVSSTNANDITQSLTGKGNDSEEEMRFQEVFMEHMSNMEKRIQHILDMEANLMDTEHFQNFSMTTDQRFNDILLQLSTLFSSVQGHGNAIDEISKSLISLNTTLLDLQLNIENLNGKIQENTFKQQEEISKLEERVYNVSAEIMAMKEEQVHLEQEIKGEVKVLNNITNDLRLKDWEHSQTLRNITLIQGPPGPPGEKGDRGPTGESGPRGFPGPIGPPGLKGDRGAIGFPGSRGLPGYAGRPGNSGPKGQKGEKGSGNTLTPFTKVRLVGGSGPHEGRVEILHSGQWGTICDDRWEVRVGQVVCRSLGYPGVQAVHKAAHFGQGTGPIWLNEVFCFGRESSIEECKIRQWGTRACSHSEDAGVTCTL
# What was measured:
# [1] = molecular target: T1, full length human MSR1 with a …; test: cell-based or functional assay
# [2] = molecular target: T2, mouse MSR1 on RAW264.7 cells; test: flow cytometry, RAW264.7 cells
# Procedure: To block binding to Fc receptors, RAW264.7 cells were incubated for 30 minutes at 4° C. with 500 pg/mL mouse IgG (Jackson ImmunoResearch, Cat #015-000-003) diluted in staining buffer, while B16F10.9 cells remained in staining buffer. […] The signal to noise (S/N) was determined by calculating the ratio of the anti-MSR1 antibodies or the control antibodies MFI to the unstained sample MFI (Table 11).
# [3] = molecular target: T3, human MSR1 extracellular domain …; test: SPR Biacore T200, 25 C, antibody captured by anti-human Fc, His9-hMSR1 injected; no dissociation seen, kd fixed at 1.00E-05;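 for kon: running buffer HBS-ET pH 7.4, rates from sensorgrams fitted to a 1:1 model including mass transport limitation, KD and half-life derived from the kinetic constants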
# Procedure: (§1) All binding studies were performed in 10 mM HEPES, 300 mM NaCl, 3 mM EDTA, and 0.05% v/v Surfactant Tween-20, pH 7.4 (HBS-ET) running buffer at 25° C.
# (§2) The association rate (kₐ) and dissociation rate (kd) were determined by fitting the real-time binding sensorgrams to a 1:1 binding model with mass transport limitation using Scrubber 2.0c curve-fitting software. Binding dissociation equilibrium constant (KD) and dissociative half-life (t½) were calculated from the kinetic rates as:
# [4] = molecular target: T3, human MSR1 extracellular domain …; test: SPR Biacore T200, 25 C, antibody captured by anti-human Fc, His9-hMSR1 injected;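 note: running buffer HBS-ET pH 7.4, rates from sensorgrams fitted to a 1:1 model including mass transport limitation, KD and half-life derived from the kinetic constants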
# Procedure: as §1, §2
# [5] = molecular target: T4, human MSR1 extracellular domain …; test: competition ELISA, plate-coated His9-hMSR1; 300 nM antibody, competitor ligand biot-AGE-BSA
# Procedure: Buffer alone was also added to wells on each coat. […] This assay was conducted in four different assay runs.
# Data analysis was performed using a sigmoidal dose-response model within Prism™ software (GraphPad).
Kd [3],t½ [3],kon [4],koff [3],Binder,other results
,,,,"H1H27732P-N297Q (antibody, human IgG1, V domains shown, human IgG1 Fc with N297Q) VH: QLQLQESGPGLVKPSETLSLTCTVSGGSISSSTYYWGWIRQPPGKGLEWIGSFYYSGSTYYNPSLKSRVTISVGTSKNQFSLKLSSVTAADTAVYFCARGGLLGRPFVIWGQGTMVTVSS VL: DIQMTQSPSSLSASVGDRVTITCRASQGIRNDLGWYQQKPGKAPKRLIYAASSLQSGVPSRFSGSGSGTEFTLTISSLQPEDFATYYCLQHNSYPLTFGGGTKVEIKR",% Inhibition of Dil-Acetylated LDL uptake [1]: 62%; % Inhibition of Dil-Oxidized LDL uptake [1]: 86%; MFI [2]: 3420 MFI; S/N (MFI over unstained MFI) [2]: 1
≤ 0.045 nM,≥ 19.3 h,,,"H1H27732P-N297Q (antibody, human IgG1, V domains shown, human IgG1 Fc with N297Q (EU)) VH: QLQLQESGPGLVKPSETLSLTCTVSGGSISSSTYYWGWIRQPPGKGLEWIGSFYYSGSTYYNPSLKSRVTISVGTSKNQFSLKLSSVTAADTAVYFCARGGLLGRPFVIWGQGTMVTVSS VL: DIQMTQSPSSLSASVGDRVTITCRASQGIRNDLGWYQQKPGKAPKRLIYAASSLQSGVPSRFSGSGSGTEFTLTISSLQPEDFATYYCLQHNSYPLTFGGGTKVEIKR",
≤ 0.066 nM,≥ 19.3 h,150000 M⁻¹ s⁻¹,≤ 1e-05 s⁻¹,"H1H27732P-N297Q-LP1 (antibody, human IgG1, V domains shown, LXR agonist linker-payload LP1 clicked to azido-PEG3-amine on Q295 and Q297 (EU) of the heavy chain constant region, antibody-drug conjugate; human IgG1 Fc with N297Q (EU); also called H1H27732P-LP1) VH: QLQLQESGPGLVKPSETLSLTCTVSGGSISSSTYYWGWIRQPPGKGLEWIGSFYYSGSTYYNPSLKSRVTISVGTSKNQFSLKLSSVTAADTAVYFCARGGLLGRPFVIWGQGTMVTVSS VL: DIQMTQSPSSLSASVGDRVTITCRASQGIRNDLGWYQQKPGKAPKRLIYAASSLQSGVPSRFSGSGSGTEFTLTISSLQPEDFATYYCLQHNSYPLTFGGGTKVEIKR",
≤ 0.0583 nM,≥ 19.3 h,172000 M⁻¹ s⁻¹,≤ 1e-05 s⁻¹,"H1H27766P-N297Q (antibody, human IgG1, V domains shown, human IgG1 Fc with N297Q (EU); also called H1H27766P2-N297Q) VH: EVQLVESGGGLVQPGGSLRLSCAASGFTFSSFAMSWVRQAPGKELEWVSSISGRGGSTYYADSVRGRFTISRDNSKITLYLQMNSLRAEDTAVYYCAKDIVFRYTSSAYWYFDLWGRGTLVTVSS VL: not shown",
≤ 0.0204 nM,≥ 19.3 h,490000 M⁻¹ s⁻¹,≤ 1e-05 s⁻¹,"H1H21234N-N297Q-LP1 (antibody, human IgG1, V domains shown, LXR agonist linker-payload LP1 clicked to azido-PEG3-amine on Q295 and Q297 (EU) of the heavy chain constant region, antibody-drug conjugate; human IgG1 Fc with N297Q (EU); also called H1H21234N-LP1) VH: QVQLQESGPGLVKPSETLSLTCTVTGGSISRNYWSWIRQPPGKGLEWIGYIYYSGSIDYNPSLKSRVTISVDTSKNQFSLKLSSMTAADTAVYYCARDRWNWKYGMDVWGQGTTVIVSS VL: EIVLTQSPGTLSLSPGERATLSCRASQTVRNNYLAWYHQKPGQAPRLLIYGASSRATGIPDRFSGSGSGTDFTLTISRLEPEDFTVYYCHQYGNSPWTFGQGTKMEIKR",
,,,,"H1H27760P2-N297Q (antibody, human IgG1, V domains shown, human IgG1 Fc with N297Q; also called H1H27760P-N297Q) VH: EVQLVESGGGLVQPGRSLRLSCAASGFTFDAYAMHWVRQAPGKGLEWVSGISWNSGSIGYADSVKGRFTISRDNAKNSLYLQMNSLREEDTALYYCAKDKILELYYYGMDVWGQGTTVTVSS VL: not shown",% Inhibition of Dil-Acetylated LDL uptake [1]: 46%; % Inhibition of Dil-Oxidized LDL uptake [1]: 70%; IC50 of Dil-Acetylated LDL uptake inhibition [1]: 2.6 nM; IC50 of Dil-Oxidized LDL uptake inhibition [1]: 4.9 nM; MFI [2]: 3430 MFI; S/N (MFI over unstained MFI) [2]: 1
,,,,"H1H27771P2-N297Q (antibody, V domains shown, Human IgG1 Fc with N297Q; also called H1H27771P-N297Q) VH: EVQLVESGGGLVQPGGSLRLSCAASGFTFSSYGMNWVRQAPGKGLEWVSVISGSGGSTYYADSVKGRFTISRDNSKNTLYLQMNSLRAEDTAVYYCAKDRWTYYYDSSGSPFDYWGQGTLVTVSS VL: not shown",% Blocking [5]: -1%
